Results as given in the supplement of paper PMC10567573.

B1: FCHO1 (parent)
chain: FSDPSQSDPETKDFWLNMAALTEA

Variants of: B1
Assay: protein stability index of a GFP-peptide fusion (GPS, HEK-293T) (PSI 1-6); higher = more stable
Settings: c terminus: a fixed tail appended
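Further: lentivirally expressed fusions sorted by FACS into six bins by GFP to DsRed ratio, PSI derived from sequencing read proportions per bin multiplied by bin number.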

Compared with FSDPSQSDSETKDFWLNMAALTEA, FSDPSQSDTETKDFWLNMAALTEA is higher in protein stability index: 2.6 for the first, 3.19 for the second.

First: FSDPSQSDEETKDFWLNMAALTEA
Second: FSDPSQSDLETKDFWLNMAALTEA
The protein stability index of the first is higher: 4.01 for the first, 2.77 for the second.

First: FSDPSQSDMETKDFWLNMAALTEA
Second: FSDPSQSDWETKDFWLNMAALTEA
The protein stability index of the first is higher: 3.39 for the first, 2.4 for the second.

Compared with FSDPSQSDYETKDFWLNMAALTEA, FSDPSQSDNETKDFWLNMAALTEA is lower in protein stability index: 2.65 for the first, 2.63 for the second.

Going from FSDPSQSDPETKDFWNNMAALTEA to FSDPSQSDPETKDFWPNMAALTEA, the protein stability index rises from 3.48 to 4.08.

Going from FSDPSQSDPETKDFWKNMAALTEA to FSDPSQSDPETKDFWGNMAALTEA, the protein stability index rises from 2.36 to 2.41.

First: FSDPSQSDPETKDFWANMAALTEA
Second: FSDPSQSDPETKDFWFNMAALTEA
The protein stability index of the first is higher: 2.87 for the first, 2.41 for the second.

Compared with FSDPSQSDPETKDFWWNMAALTEA, FSDPSQSDPETKDFWINMAALTEA is higher in protein stability index: 2.31 for the first, 2.32 for the second.

Compared with FSDPSQSDPETKDFWSNMAALTEA, FSDPSQSDPETKDFWDNMAALTEA is higher in protein stability index: 2.32 for the first, 5.04 for the second.

Going from FSDPSQSDPETKDFWYNMAALTEA to FSDPSQSDPETKDFWENMAALTEA, the protein stability index rises from 2.73 to 4.87.

Compared with FSDPSQSDPETKDFWTNMAALTEA, FSDPSQSDPETKDFWRNMAALTEA is lower in protein stability index: 2.56 for the first, 2.21 for the second.

First: FSDPSQSDPETKDFWQNMAALTEA
Second: FSDPSQSDPETKDFWHNMAALTEA
The protein stability index of the first is higher: 3.59 for the first, 2.3 for the second.

First: FSDPSQSDPETKDFWVNMAALTEA
Second: FSDPSQSDPETKDFWCNMAALTEA
The protein stability index of the first is higher: 2.22 for the first, 2.1 for the second.

Going from FSDPSQSDPETKDFWMNMAALTEA to FSDPSQSSPETKDFWLNMAALTEA, the protein stability index rises from 2.55 to 2.71.

First: FSDPSQSMPETKDFWLNMAALTEA
Second: FSDPSQSVPETKDFWLNMAALTEA
The protein stability index of the first is lower: 3.04 for the first, 3.11 for the second.

Compared with FSDPSQSYPETKDFWLNMAALTEA, FSDPSQSNPETKDFWLNMAALTEA is lower in protein stability index: 2.23 for the first, 1.95 for the second.

Going from FSDPSQSCPETKDFWLNMAALTEA to FSDPSQSQPETKDFWLNMAALTEA, the protein stability index falls from 2.62 to 2.24.

Going from FSDPSQSPPETKDFWLNMAALTEA to FSDPSQSFPETKDFWLNMAALTEA, the protein stability index falls from 2.93 to 2.37.

First: FSDPSQSHPETKDFWLNMAALTEA
Second: FSDPSQSIPETKDFWLNMAALTEA
The protein stability index of the first is lower: 2.21 for the first, 2.9 for the second.

Going from FSDPSQSLPETKDFWLNMAALTEA to FSDPSQSGPETKDFWLNMAALTEA, the protein stability index rises from 2.63 to 2.75.

Compared with FSDPSQSAPETKDFWLNMAALTEA, FSDPSQSTPETKDFWLNMAALTEA is higher in protein stability index: 2.62 for the first, 2.81 for the second.

Compared with FSDPSQSEPETKDFWLNMAALTEA, FSDPSQSRPETKDFWLNMAALTEA is lower in protein stability index: 3.1 for the first, 2.57 for the second.

Going from FSDPSQSKPETKDFWLNMAALTEA to FSDPSQSWPETKDFWLNMAALTEA, the protein stability index falls from 2.32 to 1.86.

Compared with FSDPSQSDPETKDFWLGMAALTEA, FSDPSQSDPETKDFWLHMAALTEA is higher in protein stability index: 2.67 for the first, 2.74 for the second.

Going from FSDPSQSDPETKDFWLCMAALTEA to FSDPSQSDPETKDFWLEMAALTEA, the protein stability index rises from 2.41 to 3.49.

First: FSDPSQSDPETKDFWLIMAALTEA
Second: FSDPSQSDPETKDFWLLMAALTEA
The protein stability index of the first is lower: 1.98 for the first, 2.43 for the second.

Compared with FSDPSQSDPETKDFWLKMAALTEA, FSDPSQSDPETKDFWLAMAALTEA is lower in protein stability index: 2.91 for the first, 2.56 for the second.

Compared with FSDPSQSDPETKDFWLDMAALTEA, FSDPSQSDPETKDFWLFMAALTEA is lower in protein stability index: 1.85 for the first, 1.82 for the second.

Going from FSDPSQSDPYTKDFWLNMAALTEA to FSDPSQSDPWTKDFWLNMAALTEA, the protein stability index falls from 2.14 to 1.83.

Compared with FSDPSQSDPCTKDFWLNMAALTEA, FSDPSQSDPLTKDFWLNMAALTEA is higher in protein stability index: 2.06 for the first, 2.33 for the second.

Compared with FSDPSQSDPPTKDFWLNMAALTEA, FSDPSQSDPITKDFWLNMAALTEA is lower in protein stability index: 2.66 for the first, 2.45 for the second.

Compared with FSDPSQSDPMTKDFWLNMAALTEA, FSDPSQSDPRTKDFWLNMAALTEA is higher in protein stability index: 1.94 for the first, 2.29 for the second.

Going from FSDPSQSDPDTKDFWLNMAALTEA to FSDPSQSDPHTKDFWLNMAALTEA, the protein stability index falls from 3 to 1.97.

Going from FSDPSQSDPATKDFWLNMAALTEA to FSDPSQSDPGTKDFWLNMAALTEA, the protein stability index falls from 2.5 to 2.03.

Going from FSDPSQSDPQTKDFWLNMAALTEA to FSDPSQSDPFTKDFWLNMAALTEA, the protein stability index falls from 2.54 to 1.94.

Going from FSDPSQSDPNTKDFWLNMAALTEA to FSDPSQSDPVTKDFWLNMAALTEA, the protein stability index rises from 1.9 to 2.63.

First: FSDPSQSDPTTKDFWLNMAALTEA
Second: FSDPSQSDPSTKDFWLNMAALTEA
The protein stability index of the first is lower: 2.12 for the first, 2.2 for the second.

Going from FSDPSQSDPKTKDFWLNMAALTEA to FSDPSQSDPETFDFWLNMAALTEA, the protein stability index rises from 2.04 to 2.6.

Going from FSDPSQSDPETQDFWLNMAALTEA to FSDPSQSDPETRDFWLNMAALTEA, the protein stability index falls from 3.43 to 2.65.

Going from FSDPSQSDPETYDFWLNMAALTEA to FSDPSQSDPETHDFWLNMAALTEA, the protein stability index rises from 2.97 to 3.2.

Going from FSDPSQSDPETWDFWLNMAALTEA to FSDPSQSDPETTDFWLNMAALTEA, the protein stability index rises from 2.52 to 3.15.

First: FSDPSQSDPETLDFWLNMAALTEA
Second: FSDPSQSDPETMDFWLNMAALTEA
The protein stability index of the first is lower: 2.62 for the first, 3.07 for the second.

First: FSDPSQSDPETGDFWLNMAALTEA
Second: FSDPSQSDPETPDFWLNMAALTEA
The protein stability index of the first is higher: 3.23 for the first, 3.1 for the second.

Compared with FSDPSQSDPETCDFWLNMAALTEA, FSDPSQSDPETVDFWLNMAALTEA is lower in protein stability index: 3.04 for the first, 2.86 for the second.

Going from FSDPSQSDPETSDFWLNMAALTEA to FSDPSQSDPETIDFWLNMAALTEA, the protein stability index falls from 3.26 to 3.11.

Compared with FSDPSQSDPETEDFWLNMAALTEA, FSDPSQSDPETNDFWLNMAALTEA is higher in protein stability index: 3.6 for the first, 3.66 for the second.

Going from FSDPSQSDPETDDFWLNMAALTEA to FSDPSQSDPETADFWLNMAALTEA, the protein stability index falls from 4.39 to 3.25.
